B1: F124K: NTR mutant, phenylalanine 124 to lysine (protein)
chain: MDIISVALKRHSTKAFDASKKLTPEQAEQIKTLLQYSPSSTNSQPWHFIVASTEEGKARVAKSAAGNYVFNERKMLDASHVVVFCAKTAMDDVWLKLVVDQEDADGRFATPEAKAANDKGRKFKADMHRKDLHDDAEWMAKQVYLNVGNFLLGVAALGLDAVPIEGFDAAILDAEFGLKEKGYTSLVVVPVGHHSVEDFNATLPKSRLPQNITLTEV
B2: T41L: NTR mutant, threonine 41 to leucine (protein)
chain: B1 chain with T41L, K124F
B3: Y68G: NTR mutant, tyrosine 68 to glycine (protein)
chain: B1 chain with Y68G, K124F
B4: Y68N (protein)
chain: B1 chain with Y68N, K124F
B5: S40G (protein)
chain: B1 chain with S40G, K124F
B6: Wild type: wild-type E. coli nitroreductase (NTR) encoded by the NfsB gene, SEQ ID NO:1 (protein, listed as Escherichia coli)
chain: B1 chain with K124F
B7: G120A (protein)
chain: B1 chain with G120A, K124F
B8: T41G (protein)
chain: B1 chain with T41G, K124F
B9: Y68A (protein)
chain: B1 chain with Y68A, K124F
B10: S40A (protein)
chain: B1 chain with S40A, K124F
B11: N71D (protein)
chain: B1 chain with N71D, K124F
B12: N71S (protein)
chain: B1 chain with N71S, K124F
B13: G120S (protein)
chain: B1 chain with G120S, K124F
B14: Y68G F124Q (protein)
chain: B1 chain with Y68G, K124Q
B15: S40T (protein)
chain: B1 chain with S40T, K124F
B16: Y68G F124W (protein)
chain: B1 chain with Y68G, K124W
B17: Y68W (protein)
chain: B1 chain with Y68W, K124F

Where a chain is given by its changes, count along the chain named. Names may count otherwise. “And” between values parts separate entries of the source, which are not always exact repeats. Identical values can stand only once.

Experimental findings from US20050013808A1, “Nitroreductase enzymes” (priority 2001, published 2005) are described below.

The term IC50 denotes the concentration needed to halve the response being measured. For orientation: kcat means the number of substrate molecules converted per active site and unit of time at saturation. For orientation: Km means the concentration of substrate that gives half-maximal velocity.

For one data set, the system named is UT5600 cells (NTR−) lysogens. Kind of data set: Replica-plate screening of mutant NTR-expressing lysogens on increasing CB1954 (growth score). The data set is classed as cell-based, E. coli. Set-up: key to Score: 0: Good growth on all concentrations of CB 1954 = vector; Good growth on 100 and 200, faint on 300, ring of growth on 400 μM; Good growth on 100 and 200, ring growth on 300, none or very faint on 400 μM; Good growth on 100, faint to good on 200, none or very faint on 300 and 400 μM; 4: Good growth on 100 μM, none to ring growth on 200 μM = wild type; Good growth on 50 μM, ring on 100 μM, none on 200, 300 or 400 μM; 6: Faint growth on 50 μM, ring on 100 μM; 7: Good growth on 50 μM, none on 100 μM; 8: Ring growth on 50 μM, none on 100 μM; 9: None or very faint growth on 50 μM, none on 100 μM; 10: None or ring growth on 35 μM. The settings on record: CB1954. The procedure:
The ligation mix was packaged (Stratagene) into lambda bacteriophage particles that were used to infect UT5600 cells (NTR ^−). As a control wild type NTR was also cloned into this vector (JG16C2). Kanamycin resistant lysogens were selected on agar plates ([…] kanamycin) then individually grown overnight in a well of a 96-well plate in LB+Kanamycin. The clones were replica plated on to a series of plates containing Tris-buffered (50 mM, pH 7.5) LB agar with kanamycin, IPTG (0.1 mM) and CB1954 at a concentration of 0, 25, 35, 50, 100, 200, 300 or 400 μM (see FIG. 3). […]
Turning to B1, the “nitroreductase activity with CB1954 compared with wild-type” value is listed as “substantially greater activity with CB 1954 than the wild-type”.

The data set is the same for the next values; noted with them: growth of lysogens on agar with kanamycin, IPTG and 0-400 μM CB1954; wild type = 4, higher = more sensitive.
On to B2, for which the Score was 5-7.

Molecule B3 registered a Score of 7.

As for B4, the Score was 5-7.

B5 returned a Score of 5.

As for B6, the Score worked out at 4.

Turning to B7, the Score is on record as 4-5.

As for B8, the Score was 5-7.

For B9, the Score is 5-7.

On to B10, for which the Score is given as 5-7.

For the molecule B11, the Score was 5.

Turning to B12, the Score amounted to 7.

Regarding B13, the Score is reported as 4-6.

In turn, B14 displayed a Score of 4.

Turning to B15, the Score turned out to be 5.

Consider B16, for which the Score is 5-7.

On to B1, for which the Score is on record as 8-10.

Take B17: the Score is recorded as 4-5.

A further data set deals with UT5600 cells (NTR−) lysogens. Nature of the data set: Survival curve (colony count) IC50 of CB1954 in NTR-expressing lysogens. It counts as cell-based, E. coli. The settings on record: concentration of CB1954 giving 50% reduction in colony number after 36h growth; lysogen expressing the named NTR. How it is done: To quantify the improvement in NTR activity in the clones in a less subjective way, a few clones were selected for further study by determining their survival curves. The lysogens were grown overnight in LB +kanamycin and diluted to approximately 1 cell per μl based on the OD. In duplicate, 100 μl diluted cells were plated into Tris-buffered LB plates containing kanamycin, IPTG and 0-400 μM CB1954. After 36h growth the number of colonies on each plate were counted and expressed as a percentage of the number present on the plates with no CB1954. Survival curves showing % survival versus concentration of CB 1954 were plotted (see examples in FIG. 7) and the IC50 determined as the concentration of CB 1954 which kills gives a 50% reduction in colony number (Table 3 and FIG. 8). A few clones containing mutations resulting in an enhanced sensitivity to CB 1954 were selected for further study.
B2: 38 µM corresponded to half-maximal inhibition (IC50).

The molecule B3 came in with an IC50 of 43 µM.

The molecule B4 came in with an IC50 of 79 µM.

As for B5, the half-inhibitory concentration (IC50) amounted to 90 µM.

B6 came in with a 50% inhibitory concentration (IC50) of 118 µM.

Regarding B7, the half-inhibitory concentration (IC50) stood at 160 µM.

B8 displayed an IC50 of 120 µM.

As for B9, the 50% inhibitory concentration (IC50) was 81 µM.

Consider B10, for which the half-inhibitory concentration (IC50) is 100 µM and 84 µM.

Turning to B11, it took 110 µM to reach half-maximal inhibition (IC50).

Turning to B12, the IC50 came out at 55 µM.

B13: the IC50 amounted to 125 µM.

On to B14, for which 143 µM corresponded to half-maximal inhibition (IC50).

Turning to B15, the concentration for half-maximal inhibition (IC50) turned out to be 102 µM.

As to B16, the half-maximal inhibitory concentration (IC50) came to 69 µM.

B1 registered an IC50 of 23 µM.

In the case of B17, the 50% inhibitory concentration (IC50) was 108 µM.

System in another data set: not listed separately
Kind of data set: Steady state kinetics of purified NTR, variable substrate NADH. The data set is classed as biochemical. The settings on record: fixed substrate nitrofurazone. How it is done: (§1) Wild type NTR and selected mutants were purified as described by Lovering et al., 2001. Steady state kinetic studies were carried out by monitoring the disappearance of nitrofurazone ( ? =12,960, Zenno, et al., 1994) and nitrofurantoin ( ? =12,020, McOsker, et al., 1992) at 420 nm or the disappearance of reduced benzoquinone ( ? =18,5000), 2-nitrofuran ( ? =10,250, McOsker, et al., 1992), 2-nitrobenzamide ( ? =9,750, McOsker, et al., 1992) and 4 nitrobenzamide ( ? =9,720, McOsker, et al., 1992) at 300 nm. The formation of the 4 hydroxylamine product of CB1954 reduction was monitored at 420 nm ( ? =7900, Richard Knox, personal communication).
(§2) All reactions were performed in quartz cuvettes with either a 0.1-, 0.5-, or 1-cm pathlength. In all cases the reaction was initiated by the addition of a small amount of cold enzyme solution to the reaction mix. Assays were performed in 10 mM Tris HCL pH 7.0. The temperature of each reaction was maintained at 25° C. by means of a circulating water bath. All substrates examined were dissolved in DMSO, with the final concentration of organic solvent not exceeding 4% (v/v), concentrations>5% (v/v) give definable enzyme inhibition. In all assay the final DMSO concentration was at 4%. All steady state data were collected in an aerobic environment. Kinetic data were collected at concentration ranges extending from 0.1 of Km to the maximum possible concentration permitted by substrate solubility or optical absorbance. In all cases maximum substrate concentrations exceeded 5×Km. All data was analysed using the commercial package Sigma Plot™ and fit with non-linear regression to a rectangular hyperbola of the form: y=ax/b+x
For the molecule B2, the kcat was 35.18 ± 0.583 s⁻¹.

With B3, the kcat worked out at 54.77 ± 0.55 s⁻¹.

As to B6, the catalytic constant (kcat) turned out to be 11 ± 0.383 s⁻¹.

On to B1, for which the kcat came out at 12 ± 0.15 s⁻¹.

The same data set, now with this note: fixed substrate nitrofurazone, 10 mM Tris HCl pH 7.0, 25° C., 4% DMSO.
As for B2, the Km was found to be 5 ± 2 µM.

For the molecule B3, the Michaelis constant (Km) is 22 ± 1 µM.

With B6, the Michaelis-Menten constant (Km) is 7 ± 1 µM.

On to B1, for which the Km was determined as 1 ± 0.2 µM.

System in a further data set: not listed separately
Kind of data set: Steady state kinetics of purified NTR, variable substrate CB1954. It counts as biochemical. The settings on record: second substrate CB1954; nucleotide NADH. How it is done: as §1, §2
Turning to B2, the “kinetic parameters compared with wild type” value is “best bimolecular rate constant vs. the second substrate”.

On to B3, for which the “kinetic parameters compared with wild type” value is reported as “large improvement in catalytic activity vs. second substrate but not in kcat/Km”.

Consider B1, for which the “kinetic parameters compared with wild type” value was “significant improvement in kcat/Km for both nucleotide and second substrate”.

The same data set, now with this note: variable substrate CB1954, fixed substrate NADH.
Regarding B2, the Km was 871 ± 77 µM and the kcat was 16.2 ± 1.37 s⁻¹.

As for B3, the Km worked out at 1840 ± 44 µM and the catalytic constant (kcat) was found to be 11.5 ± 0.9 s⁻¹.

For B6, the Michaelis-Menten constant (Km) is 852 ± 8 µM and the catalytic constant (kcat) was found to be 5.7 ± 0.417 s⁻¹.

On to B1, for which the Km was found to be 371 ± 12 µM and the kcat came to 5.72 ± 0.717 s⁻¹.

System in the next data set: not listed separately
Kind of data set: Steady state kinetics of purified NTR, variable substrate nitrofurazone. It counts as biochemical. The settings on record: fixed substrate NADH. How it is done: as §1, §2
Regarding B2, the Michaelis-Menten constant (Km) is 79 ± 11 µM and the turnover number (kcat) was 35.14 ± 0.612 s⁻¹.

With B3, the Michaelis constant (Km) is 699 ± 24 µM and the kcat was found to be 59.02 ± 0.4 s⁻¹.

For B6, the Km came out at 157 ± 4 µM and the kcat is 11.4 ± 0.05 s⁻¹.

Consider B1, for which the Michaelis constant (Km) was determined as 53 ± 5 µM and the kcat is 12.6 ± 0.25 s⁻¹.
